Patent US20160327558

Human cathepsin B
in vitro protease activity measurements (zRR-AMC cleavage) (z-VRPR-FMK): also abrogated cathepsin B activity even though slightly less efficient
in vitro protease activity measurements (zRR-AMC cleavage) (probe 5 (FITC-LRSR-AOMK)): also abrogated cathepsin B activity even though slightly less efficient
